Assays:
[1] = molecular target: hGPC3-C fragment (AA359-580) (human) (UniProt P51654); test: flow cytometry, intracellular staining of 293 cells transfected with hGPC3-C; gate set on untransfected cells
[2] = molecular target: hGPC3-C fragment (AA359-580) (human) (UniProt P51654); test: flow cytometry, intracellular staining of 293T cells transfected with hGPC3-C; gate set on untransfected cells

Chain of hGPC3-C fragment (AA359-580) (human) (P51654 359-580 limits assumed, form in doubt): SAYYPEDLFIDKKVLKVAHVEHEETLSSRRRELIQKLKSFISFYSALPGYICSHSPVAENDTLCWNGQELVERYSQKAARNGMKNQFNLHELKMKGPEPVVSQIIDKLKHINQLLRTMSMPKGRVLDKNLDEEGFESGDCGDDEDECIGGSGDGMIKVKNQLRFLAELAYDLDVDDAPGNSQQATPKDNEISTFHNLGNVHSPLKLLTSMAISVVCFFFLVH

B1: mAb 12D7 (mouse hybridoma antibody) (antibody, V domains shown)
VH: QVQLQQPGSELVRPGASVKLSCKASGYTFTSYWMHWVKQRLGQGLEWIGNIYPGSGSTNYDEKFKSKGTLTVDTSSSTAYMHLSSLTSEDSAVYYCTRGDYDWVFAYWGQGTLVTVSA
VL: DIVMTQSQKFMSTSVGDRVSVTCKASQNVGTNVAWYQQKPGQSPKALIYSASYRYSGVPDRFTGSGSGTDFTLTISNVQSEDLAEYFCQQYNSYPLTFGAGTKLELKR
- % of cells in the positive gate [1]: 0.92%
- % of events in gate M1 [2]: 0.47%

B2: mAb 6G11 (mouse hybridoma antibody) (antibody, V domains shown)
VH: QVQLQQPGSELVRPGASVKLSCKASGYTFTSCWMHWVKQRPGQGLEWIGNIYPGYGNTNYDEKFKNKATLTVDTSSSTAYMQLSGLTSEDSAVYYCTRGSYLYAMDYWGQGTSVTVSS
VL: DIQMNQSPSSLSASLGDTITITCHASQNINVWLSWYQQKPGNIPKLLIYKASNLHTGVPSRFSGSGSGTGFTLTISSLQPEDIATYYCQQGQSYPWTFGGGTKLEIKR
- % of cells in the positive gate [1]: 0.75%
- % of events in gate M1 [2]: 4.03%
